Data reported in patent US6462189.
Where a chain is given by its changes, count along the chain named.

B1: ubiquitin-binding monobody 422 (phage clone) (designed binder, not shown: large carriers; small tags and cut ends)
chain: VSDVPRDLEVVAATPTSLLISWDAPARWTLYYRITYGETGGNSPVQEFTVPGSKSTATISGLKPGVDYTITVYAVTRRWWWSKPISINYRT
notes: Library 4 clone obtained by panning on ubiquitin; no test of it as a single clone is reported
B2: ubiquitin-binding monobody 424 (phage clone) (designed binder, not shown: large carriers; small tags and cut ends)
chain: B1 chain with A26G, R27Q, W28R, L30F, W81A
notes: as for B1

Target: T1, Yeast ubiquitin (yeast, UniProt P0CG63 1-76)
T1 construct: mature; also called soluble ubiquitin; free ubiquitin
T1 sequence (P0CG63 1-76 limits assumed): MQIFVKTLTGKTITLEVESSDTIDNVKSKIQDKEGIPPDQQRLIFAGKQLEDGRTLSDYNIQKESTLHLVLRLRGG
Test: clone obtained by phage panning on immobilized ubiquitin
Procedure: Libraries 2 and 4, described in Example VI above, were used to select ubiquitin-binding monobodies. Ubiquitin (1 μg in 50 μl sodium bicarbonate buffer (100 mM, pH 8.5)) was immobilized in the wells of a microtiter plate, followed by blocking with BSA (3% in TBS). Panning was performed as described above. In the first two rounds, 1 μg of ubiquitin was immobilized per well, and bound phage were elute with an acidic solution. From the third to the sixth rounds, 0.1 μg of ubiquitin was immobilized per well and the phage were eluted either with an acidic solution or with TBS containing 10 μM ubiquitin.

Binder | binding result
B1 | binds
B2 | binds
